In data set [1] the target is T1, ABX (Homo sapiens, UniProt P02768).
T1 construct: purchased Celgene Corporation, Summit, N.J
The data set can be described thus: Binding of cisplatin to ABX (free cisplatin in supernatant by HPLC). It is filed as physicochemical. Conditions: ABX 5 mg/ml, cisplatin 0.5 mg/ml, room temperature, 30 minutes.

Data set [2] addresses T1, ABX. The data set can be described thus: Bio-Layer Interferometry (BLItz) binding of antibody to ABX. Conditions: for binding affinity to ABX (in words): BLItz; for dependence of binding affinity to ABX on pH / temperature: pH 3, 5, 7, 9, BEV also RT, 37° C., 58° C.
Experimental: The association and dissociation constants were calculated using the BLItz software.
Data set [3] relates to A375 human melanoma cells. Nature of the data set: A375 xenograft, BEV pretreatment follow up study. It is filed as in vivo, athymic nude mice. Conditions: day 7 and day 10 post treatment; BEV 12 mg/kg, ABX 30 mg/kg. The text has this: Data is represented at day 7-post and day 10-post treatment as tumor volume in mm^3. FIGS. 11A-E track tumor size over 10 days. […] See also FIG. 11 F and FIG. 11 G.

In data set [4] the test system is A375 human melanoma cells. The data set can be described thus: A375 human melanoma xenograft in athymic nude mice. It is filed as in vivo. As to conditions: BEV 12 mg/kg, ABX 30 mg/kg, tumors about 700 mm^3 at treatment.
Experimental: In vivo experiments were performed at least 2 times. The number of mice required for those experiments was determined by power analysis. Mouse tumors were measured 2-3 times/week and mice were sacrificed when the tumor was 10% by weight. […] The end point of the mouse studies was median survival. Kaplan-Meier curves were generated and Mantle-Cox test was performed to determine significance of median survival between treatment groups. The in vitro results presented are representative of at least 5 repeated experiments. Statistical analyses of in vitro and in vivo percent change from baseline experiments were done using the Student's t-test.
(§1) To test tumor efficacy, 1×10^6 A375 human melanoma cells were implanted into the right flank of athymic nude mice (Harlan Sprague Dawley, Indianapolis, Ind.). […] Tumor size was monitored 3 times/week and tumor volume was calculated with the following equation: (length×width^2)/2. Mice were sacrificed when the tumor size equaled 10% of the mouse body weight or about 2500 mm^3. The day 7 percent change from baseline was calculated as follows: [(tumor size on treatment day-tumor size on day 7)/tumor size on treatment day]×100.
The ABC complex was tested in the A375 melanoma xenotransplant model relative to each drug alone and AB160.
The effect of AB225 was assayed in animals as set forth above.
Data set [5] concerns Daudi human lymphoma cells. Nature of the data set: Daudi lymphoma xenotransplant in athymic nude mice. It is filed as in vivo. Conditions: ABX 30 mg/kg, rituximab 12 mg/kg.
Experimental: Tumor response was determined at day 7 post-treatment by the percent change in tumor size from the first day of treatment.
as §1
On day 7 post treatment, tumors were measured and the percent change in tumor size from baseline was calculated.
Another data set has as its target T2, CD20 (Homo sapiens, UniProt P11836).
T2 construct: endogenous in cells; host or cells: Daudi human B-cell lymphoma cells
T2 sequence (P11836 1-297): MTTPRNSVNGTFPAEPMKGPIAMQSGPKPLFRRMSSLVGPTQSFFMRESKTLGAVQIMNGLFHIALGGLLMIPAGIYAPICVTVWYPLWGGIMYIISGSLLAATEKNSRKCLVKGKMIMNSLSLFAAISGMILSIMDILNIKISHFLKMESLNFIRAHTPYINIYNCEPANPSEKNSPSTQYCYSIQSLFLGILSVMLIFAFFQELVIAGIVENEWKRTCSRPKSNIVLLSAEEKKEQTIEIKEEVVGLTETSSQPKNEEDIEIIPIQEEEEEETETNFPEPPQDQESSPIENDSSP
Nature of the data set: Blocking of fluorescent anti-human CD20 labeling of Daudi cells (flow cytometry). It is filed as cell-based. As to conditions: Daudi cells pretreated before CD20 labeling. An excerpt: CD20 positive Daudi lymphoma cells were labeled with fluorescent tagged anti-human CD20 or isotype matched control in panel F and A, respectively, and analyzed by flow cytometry.
For orientation: In flow cytometry, cells or beads pass a laser one at a time.

Consider three molecules from patent US11655301B2, “Carrier-binding agent compositions and methods of making and using the same” (Mayo Foundation for Medical Education and Research, priority 2016, dated 2023).

With `N.N.[Cl][Pt][Cl]` [cisplatin], the “cisplatin remaining in the supernatant” value at ABX [1] is 40%.
Consider bevacizumab, for which, in the data set with ABX [2], the “binding affinity to ABX (in words)” value was “picomolar range”; the “dependence of binding affinity to ABX on pH / temperature” value is “both pH- and temperature-dependent”. Further, the average tumor volume entry in data set [3] was “not therapeutic”. Besides, the median survival in data set [4] is listed as 14 days.
As to rituximab, in the data set with ABX [2], the “binding affinity to ABX (in words)” value is given as “picomolar range” and the “dependence of binding affinity to ABX on pH / temperature” value is “decreased with higher pH”. Also, in data set [5], the median survival turned out to be 12 days. Moreover, the “blocking of CD20 binding of fluorescent anti-CD20” value in the data set with CD20 is reported as “specifically blocked”.
